Source: patent US20060258581A1, “Methods and composition for derepressions of IAP-inhibited caspase” (priority 2001, published 2006)
Where no end group is shown, it is not given here. [ ]: non-standard residue; d: D form. The star is where a group is joined. Phe(4-Cl) = N[C@@H](Cc1ccc(Cl)cc1)C(=O)O; dPhe(4-Cl) = N[C@H](Cc1ccc(Cl)cc1)C(=O)O; dPhe(4-F) = N[C@H](Cc1ccc(F)cc1)C(=O)O; 2Nal = N[C@@H](Cc1ccc2ccccc2c1)C(=O)O; d2Nal = N[C@H](Cc1ccc2ccccc2c1)C(=O)O; Fmoc = O=C(OCC1c2ccccc2-c2ccccc21)*; 2Thi = N[C@@H](Cc1cccs1)C(=O)O; Cha = N[C@@H](CC1CCCCC1)C(=O)O

Assays:
[1] = target: T1, XIAP-inhibited caspase-3 (Homo sapiens, UniProt P98170); experiment: IAP derepression assay: Ac-DEVD-AFC hydrolysis by caspase-3 in the presence of GST-XIAP; type: biochemical; settings: for LC (lowest concentration with a ratio of 2 or higher in the derepression assay): tested at 0.4, 2, 10 and 50; for reversing XIAP-mediated suppression of caspase 3: 50 μg/ml, full length XIAP
T1 construct: in a caspase derepression assay using full length XIAP; made in house; host or cells: bacteria
T1 sequence (P98170 whole entry): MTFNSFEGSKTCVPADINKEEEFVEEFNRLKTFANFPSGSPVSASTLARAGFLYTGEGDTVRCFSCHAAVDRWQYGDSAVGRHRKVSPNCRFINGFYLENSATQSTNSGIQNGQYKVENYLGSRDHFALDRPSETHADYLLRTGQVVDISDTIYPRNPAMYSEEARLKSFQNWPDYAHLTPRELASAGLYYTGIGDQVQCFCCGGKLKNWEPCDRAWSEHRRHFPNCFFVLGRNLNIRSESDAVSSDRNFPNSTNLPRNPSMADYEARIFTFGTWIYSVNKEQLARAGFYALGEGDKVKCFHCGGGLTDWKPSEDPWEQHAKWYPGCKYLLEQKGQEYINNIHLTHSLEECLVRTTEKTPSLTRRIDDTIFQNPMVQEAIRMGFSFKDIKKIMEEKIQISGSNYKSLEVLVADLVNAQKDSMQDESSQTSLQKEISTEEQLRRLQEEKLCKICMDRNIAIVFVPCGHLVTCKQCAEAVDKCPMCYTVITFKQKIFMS
Method: The ratio of Vmax for hydrolysis of Ac-DEVD-AFC in the presence and absence of the candidate mixture was calculated and used to identify those that contain an agent that derepresses an IAP-inhibited caspase.
Each mixture was aliquoted in a 25 microliter volume and in duplicate to a well of a 96 well microtiter plate. […] Fluorescence of liberated AFC was immediately detected from each well for 30 minutes at 30 second intervals. The Vmax for hydrolysis of AC-DEVD-AFC from each well was measured using the softmax software package.

[2] = test system: ALVA31 prostate cancer cells; experiment: ALVA31 prostate cancer cell viability (XTT dye-reduction, trypan blue); type: cell-based; settings: 24 hrs; peptides 40 μM, VP-16 100 μM
Method: The in vivo effects of TPI 792-33 or TPI 792-35, either individually or in combination with the cytotoxic anticancer drug VP-16 (etoposide), on derepression of XIAP-inhibited caspase and viability of ALVA31 cells was determined as follows. ALVA31 prostate cancer cells were seeded onto 96 well plates (10^4 cells/well) in 100 μL RPMI containing 2.5% fetal bovine serum (FBS). […] After another 24 hrs-incubation, cell viability was measured by the XTT dye-reduction assay (Roche, Molecular Biochemicals; Indianapolis, Ind.) and trypan blue dye exclusion assay.

[3] = test system: NCI panel of 60 tumor cell lines; experiment: NCI panel of 60 tumor cell lines, 48 hours, protein-based colorimetric assay; set-up: species or system human
Method: Selected polyphenylurea compounds were tested on the National Cancer Institute (NCI) panel of 60 tumor cell lines (see FIG. 28a and FIG. 29).

[4] = target: GST-XIAP (human) (UniProt P98170); experiment: cell-based or functional assay
GST-XIAP (human), sequence (P98170 whole entry): as above

| Molecule | LC (lowest concentration with a ratio of 2 or higher in the derepression assay) [1] | other results |
| --- | --- | --- |
| O=C(NC[C@@H](CC1CCCCC1)N(C[C@@H]1CCCN1CCC12CC3CC(CC(C3)C1)C2)C(=O)Nc1ccccc1)Nc1ccccc1 [TPI 1396-35] | – | Activity* (relative caspase-3 activity: Vmax in the presence of compound / Vmax of controls having caspase-3 and XIAP) ([1]; XIAP derepression assay): 2.5 |
| COc1cc([C@@H]2c3cc4c(cc3[C@@H](O[C@@H]3O[C@@H]5CO[C@@H](C)O[C@H]5[C@H](O)[C@H]3O)[C@H]3COC(=O)[C@H]23)OCO4)cc(OC)c1O [VP-16, etoposide, reference compound] | – | cell viability, compound alone [2]: essentially no effect; average (mean) LD50 for the 60 cell lines [3]: 200 ± 2.5 µM |
| (L-Ala)-(D-Trp)-(L-Trp)-(L-ThiAla) (A[dW]W[2Thi]) [TPI 1332-47] | – | reversing XIAP-mediated suppression of caspase 3 [1]: Active |
| (L-Ala)-(L-Trp)-(L-Trp)-(L-ThiAla) (AWW[2Thi]) [TPI 1332-1] | – | reversing XIAP-mediated suppression of caspase 3 [1]: Active |
| (L-Cha)-(D-Nal)-(L-Trp)-(L-ThiAla) ([Cha][d2Nal]W[2Thi]) [TPI 1332-41] | – | reversing XIAP-mediated suppression of caspase 3 [1]: Active |
| H-AVPIAQK-NH2 [SMAC peptide (H-Ala-Val-Pro-Ile-Ala-Gln-Lys-NH2)] | – | Vmax(mix + casp3 + XIAP)/Vmax(casp3 + XIAP) [4]: 3.8 |

More lines, main results first:

| LC (lowest concentration with a ratio of 2 or higher in the derepression assay) [1] | Molecule | other results |
| --- | --- | --- |
| 10 µg/mL | (D-Nal)-(D-pClPhe)-(L-pClPhe)-(Lys-εFmoc) ([d2Nal][dPhe(4-Cl)][Phe(4-Cl)]K(Fmoc)) [TPI 792-9] | – |
| 2 µg/mL | (D-Nal)-(L-Nal)-(D-Lys-εFmoc)-(Lys-εFmoc) ([d2Nal][2Nal][dK](Fmoc)K(Fmoc)) [TPI 792-17] | – |
| 2 µg/mL | (D-Nal)-(L-Nal)-(L-pClPhe)-(Lys-εFmoc) ([d2Nal][2Nal][Phe(4-Cl)]K(Fmoc)) [TPI 792-15] | – |
| 2 µg/mL | (D-Nal)-(Lys-εFmoc)-(L-pClPhe)-(Lys-εFmoc) ([d2Nal]K(Fmoc)[Phe(4-Cl)]K(Fmoc)) [TPI 792-3] | – |
| 2 µg/mL | (L-ThiAla)-(D-pClPhe)-(L-pClPhe)-(Lys-εFmoc) ([2Thi][dPhe(4-Cl)][Phe(4-Cl)]K(Fmoc)) [TPI 792-27] | – |
| 2 µg/mL | (L-ThiAla)-(Lys-εFmoc)-(D-Nal)-(Lys-εFmoc) ([2Thi]K(Fmoc)[d2Nal]K(Fmoc)) [TPI 792-19] | – |
| 2 µg/mL | (L-ThiAla)-(Lys-εFmoc)-(L-pClPhe)-(pF-D-F) ([2Thi]K(Fmoc)[Phe(4-Cl)][dPhe(4-F)]) [TPI 792-22] | – |
